Measurements from publication PMC2119935.

Biological target: F-actin (polymerised rabbit skeletal muscle actin) (rabbit) (UniProt P68135)
Assay: co-sedimentation

Kd: 18 µM
Substance: GST-ΔFok fusion protein (c-Abl type IV amino acids 1015-1142 fused to GST) (domain or fragment)
